Test results reported in patent US20050249719.

Columns and labels:
[1] = test system: recombinant alpha2-gliadin
[2] = test system: T1, 33-mer gliadin peptide LQLQPFPQPQLPYPQPQLPYPQPQLPYPQPQPF
T1 sequence: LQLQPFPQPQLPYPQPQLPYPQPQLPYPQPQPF

[3] = test system: T2, gliadin peptide PQPQLPYPQPQLP
T2 sequence: PQPQLPYPQPQLP

barley endoprotease EPB2, mature form, sequence (chain, as listed by the source): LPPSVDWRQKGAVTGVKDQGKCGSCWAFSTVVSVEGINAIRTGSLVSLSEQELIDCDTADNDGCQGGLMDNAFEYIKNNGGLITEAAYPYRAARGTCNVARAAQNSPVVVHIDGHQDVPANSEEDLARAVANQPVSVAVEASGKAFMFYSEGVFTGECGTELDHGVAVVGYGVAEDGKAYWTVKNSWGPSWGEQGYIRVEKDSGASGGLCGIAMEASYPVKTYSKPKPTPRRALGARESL

Substance | digestion of purified α2-gliadin under acidic conditions [1] | rate of substrate (33-mer+32-mer) disappearance [2] | time to hydrolyze 10 µM of the 33-mer with 0.1 µM enzyme [2] | Kcat/KM [3] [mM^-1/s^-1] | competitive proteolysis of the 13-mer and the 33-mer [3]
barley endoprotease EPB2, mature form | efficiently digests purified α2-gliadin | – | – | – | –
Sphingomonas capsulata prolyl endopeptidase (recombinant, expressed in E. coli) | – | 0.07 µM/min (SC PEP) | required >1 hr to reach a comparable endpoint | 492 | showed a clear preference for the 13-mer peptide
Myxococcus xanthus prolyl endopeptidase (recombinant, expressed in E. coli) | – | 0.43 µM/min (MX PEP) | – | 548 | showed a clear preference for the 13-mer peptide
